This is an account of results in paper PMC4617317.

The test system of data set [1] is H-NS (Vibrio cholerae C7258?). Put plainly: EMSA.
The test system of data set [2] is VpsT (Vibrio cholerae C7258?). Nature of the data set: EMSA.

With vpsA promoter -223 to -139, the Kd was found to be 138 nM in data set [1] and 42.6 nM in data set [2].

Regarding vpsL promoter -262 to -185, the Kd turned out to be 204 nM in data set [1] and 35.4 nM in data set [2].
